Reference: patent publication US20230348609A1 (WUXI BIOLOGICS SHANGHAI, published 2023)

Tests used:
[1] = target: T1, recombinant human OX40 extracellular domain (human, UniProt P43489 29-214); test: ELISA, plate coated with 1 ug/mL recombinant extracellular domain
T1 construct: extracellular domain
T1 sequence (looked up): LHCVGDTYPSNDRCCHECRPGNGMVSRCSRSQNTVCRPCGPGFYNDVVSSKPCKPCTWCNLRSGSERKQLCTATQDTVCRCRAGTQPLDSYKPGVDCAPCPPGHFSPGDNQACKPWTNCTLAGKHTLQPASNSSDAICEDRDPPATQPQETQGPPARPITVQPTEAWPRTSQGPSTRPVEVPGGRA
Description: (§1) Plate was pre-coated with 1 μg/mL of recombinant human CD40, OX40, 4-1BB, GITR or BCMA extracellular domain in 100 μL coating buffer (0.02 M Na₂CO₃ and 0.18 M NaHCO₃, pH9.2) per well at 4° C. overnight. Next day, the plate was washed with 1×PBST for one time. After 1-hour blocking using 200 μL of 1×PBS/2% BSA, the plate was washed using 1×PBST for 3 times. W3525 was added to the plate at a concentration of 66.7 nM and incubated at ambient temperature for 1 hour. Anti-CD40 antibodies BMK4 and BMK5, anti-OX40 antibody MEDI0562, anti-4-1BB antibody BMS-663513, anti-GITR antibody INCAGN01876 and anti-BCMA antibody EM801 were used as positive controls, respectively. Human IgG2 isotype antibody was used as isotype control. After incubation, the plate was washed using 1×PBST for 3 times. HRP-labeled goat anti-human IgG antibody diluted in 1×PBS/2% BSA at a ratio of 1:5000 was added and incubated for 1 hour. After washing with 1×PBST for 6 times, the color was developed by dispensing 100 μL of TMB substrate, and then reaction was stopped by adding 100 μL of 2M HCl. Absorbance was read at 450 nm and 540 nm using a microplate spectrophotometer. GraphPad Prism was used to plot the antibody concentration (x-axis) versus absorbance (y-axis). All samples were tested in duplicate.

[2] = target: T2, recombinant human BCMA extracellular domain (human, UniProt Q02223 1-54); test: as above
T2 construct: extracellular domain
T2 sequence (looked up): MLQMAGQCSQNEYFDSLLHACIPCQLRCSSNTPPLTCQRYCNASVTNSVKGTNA
Description: as §1

[3] = target: T3, recombinant human 4-1BB extracellular domain (human, UniProt Q07011 24-186); test: as above
T3 construct: extracellular domain
T3 sequence (Q07011 24-186): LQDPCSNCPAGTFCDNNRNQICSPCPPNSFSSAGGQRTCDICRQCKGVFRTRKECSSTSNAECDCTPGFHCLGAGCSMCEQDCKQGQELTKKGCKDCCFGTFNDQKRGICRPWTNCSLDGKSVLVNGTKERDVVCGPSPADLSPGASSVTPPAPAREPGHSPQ
Description: as §1

[4] = target: T4, Human GITR protein (His tag, ECD) (human, UniProt Q9Y5U5 26-162); test: as above
T4 construct: extracellular domain; Bought protein
T4 sequence (looked up): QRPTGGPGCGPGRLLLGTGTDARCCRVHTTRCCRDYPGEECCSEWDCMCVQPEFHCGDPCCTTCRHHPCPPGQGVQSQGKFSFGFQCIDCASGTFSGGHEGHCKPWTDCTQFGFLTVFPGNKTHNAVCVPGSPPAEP
Description: as §1

[5] = target: T5, W352-cynoPro1.ECD.His (cynomolgus monkey, UniProt G7PG38 21-193); test: SPR, Biacore T200; antibody captured by goat anti-human Fc; analyte W352-cynoPro1.ECD.His
T5 construct: range 21-193; Also used for the 'recombinant cynomolgus monkey CD40 extracellular domain' coated in the ELISA of 3.5; also called Cynomolgus monkey CD40 extracellular domain, His tag; W352-cPro1.ECD.His; not shown: His tag
Description: The affinity of W3525 to cynomolgus monkey CD40 was determined using Biacore T200. The process of immobilization was the same as that of Biacore 8K. The antibody W3525 was diluted to 33.35 nM in running buffer (1×HBS-EP+) and was captured onto Fc2 at a flow rate of 10 μL/min for 60 s. Seven concentrations (0, 1.56, 3.13, 6.25, 12.5, 25 and 50 nM) of analyte W352-cynoPro1.ECD.His were injected orderly to Fc1 and Fc2 at a flow rate of 30 μL/min for an association phase of 240 s, followed by 300 s dissociation. After each cycle, glycine solution (10 mM, pH 1.5) as regeneration buffer was injected to regenerate the chip.
Molecular weight of 29 kDa was used to calculate the molar concentration of W352-cPro1.ECD.His.

[6] = target: T6, cynomolgus monkey CD40 on transiently transfected 293F cells (cynomolgus monkey, UniProt G7PG38 21-278); test: FACS on 293F cells transiently transfected with cynomolgus monkey CD40
T6 construct: whole, on cells; also called cell surface cynomolgus monkey CD40
Description: Cynomolgus monkey CD40 transiently transfected 293F cells (2×10⁵ cells/well) were incubated with various concentrations of W3525 (3-fold serially diluted from 200 nM to 0.0102 nM) at 4° C. for 1 hour. After washing with 1×PBS/1% BSA, a secondary antibody, R-PE-labeled goat anti-human IgG (1:150) was added and incubated with cells at 4° C. in dark for 1 hour. The cells were washed and suspended and the MFI and EC50 values were determined as described above.

[7] = target: T7, human CD40, full-length, on cells (human, UniProt P25942 21-277); test: FACS on A431 cells (human CD40 binding assay); A431 cells
T7 construct: whole, on cells; Transfected full-length CD40 on CHO-K1 and U937 cells; Endogenous CD40 on Raji, A431, Ramos, primary B cells and dendritic cells; also called cell surface human CD40; W352-CHOK1.hPro1.A7
T7 sequence (P25942 21-277): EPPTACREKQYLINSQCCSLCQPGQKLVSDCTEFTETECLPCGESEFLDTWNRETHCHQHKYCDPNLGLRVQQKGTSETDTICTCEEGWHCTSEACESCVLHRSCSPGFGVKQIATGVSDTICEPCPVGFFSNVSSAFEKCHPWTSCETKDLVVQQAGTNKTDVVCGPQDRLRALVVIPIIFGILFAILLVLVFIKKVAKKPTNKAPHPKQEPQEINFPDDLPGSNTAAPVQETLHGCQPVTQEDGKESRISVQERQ
Description: (§2) W352-CHOK1.hPro1.A7 (1×10⁵ cells/well), Raji (1×10⁵ cells/well) or A431 (5×10⁴ cells/well) cells were incubated with various concentrations of W3525 antibody (3-fold serially diluted from 100 nM to 0.0051 nM, or 5-fold serially diluted from 100 nM to 0.00128 nM) at 4° C. for 1 hour. After washing with 1×PBS/1% BSA, the secondary antibody, Alex647-labeled goat anti-human IgG (1:250) or R-PE-labeled goat anti-human IgG (1:150) was added and incubated with cells at 4° C. in dark for 1 hour. Anti-human CD40 antibodies BMK4 and BMK5 were used as positive controls. Human IgG1 and IgG2 isotype antibodies were used as isotype controls. The cells were then washed and re-suspended in 1×PBS/1% BSA. MFI of the cells was measured by a flow cytometer and analyzed by FlowJo. GraphPad Prism was used to plot the log of antibody concentration (x-axis) versus MFI (y-axis). The EC50 values were determined using four-parameter dose-response curve model.
(§3) The binding result of W3525 on W352-CHOK1.hPro1.A7, Raji and A431 cells are shown in FIGS. 1, 2 and 3, respectively.

[8] = target: T8, CD40 protein, canine, recombinant (His tag) (canine, UniProt Q7YRL5 21-194); test: ELISA, plate coated with 1 ug/mL recombinant CD40 extracellular domain
T8 construct: extracellular domain; Bought protein; also called canine CD40
T8 sequence (looked up): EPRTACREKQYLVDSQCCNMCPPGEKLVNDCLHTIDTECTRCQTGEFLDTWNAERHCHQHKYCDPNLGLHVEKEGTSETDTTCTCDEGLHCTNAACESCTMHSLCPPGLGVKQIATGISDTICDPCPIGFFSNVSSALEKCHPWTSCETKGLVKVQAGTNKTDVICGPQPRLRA
Description: as §1
(§4) Plate was pre-coated with 1 μg/mL of recombinant human, cynomolgus monkey, mouse, canine or rat CD40 extracellular domain in 100 μL coating buffer per well at 4° C. overnight. Then the ELISA procedure was performed as described above. Anti-human CD40 antibodies BMK4 and BMK5 were used as positive controls. Human IgG1 and IgG2 isotype antibodies were used as isotype controls.

[9] = target: T9, CD40 protein, rat, recombinant (His tag) (rat, UniProt A6JXD6 20-193); test: as above
T9 construct: Bought protein; also called rat CD40; not shown: C-terminal His tag of the vendor's construct (SinoBiological 80151-R08H)
T9 sequence: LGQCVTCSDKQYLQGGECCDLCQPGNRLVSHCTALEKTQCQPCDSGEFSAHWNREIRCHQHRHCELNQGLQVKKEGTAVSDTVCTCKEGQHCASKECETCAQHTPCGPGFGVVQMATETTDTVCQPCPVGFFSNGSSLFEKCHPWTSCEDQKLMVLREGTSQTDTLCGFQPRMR
Description: as §1, §4

[10] = target: T10, W352-mPro1.ECD.His (mouse, UniProt P27512 20-193); test: as above
T10 construct: range 20-193; The ELISA of 3.5 says only 'recombinant mouse CD40 extracellular domain'; also called Mouse CD40 extracellular domain, His tag; mouse CD40; not shown: His tag
T10 sequence (P27512 20-193 limits assumed): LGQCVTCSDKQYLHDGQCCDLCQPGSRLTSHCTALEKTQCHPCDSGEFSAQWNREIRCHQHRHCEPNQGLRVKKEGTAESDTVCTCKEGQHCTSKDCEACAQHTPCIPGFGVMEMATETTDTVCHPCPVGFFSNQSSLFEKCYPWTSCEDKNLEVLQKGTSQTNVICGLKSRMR
Description: as §1, §4

[11] = target: T7, human CD40, full-length, on cells; test: FACS on Raji cells (human CD40 binding assay); Raji cells
Description: as §2, §3

[12] = target: T7, human CD40, full-length, on cells; test: cell-based or functional assay
[13] = target: T11, W352-hPro1.ECD.His (human, UniProt P25942 21-193); test: SPR, Biacore 8K; antibody captured by goat anti-human Fc; analyte W352-hPro1.ECD.His; 1:1 model
T11 construct: range 21-193; Also used for the 'recombinant human CD40 extracellular domain' coated in the ELISAs of 3.4 and 3.5; also called Human CD40 extracellular domain, His tag; human CD40 free protein; not shown: His tag
T11 sequence (P25942 21-193 limits assumed): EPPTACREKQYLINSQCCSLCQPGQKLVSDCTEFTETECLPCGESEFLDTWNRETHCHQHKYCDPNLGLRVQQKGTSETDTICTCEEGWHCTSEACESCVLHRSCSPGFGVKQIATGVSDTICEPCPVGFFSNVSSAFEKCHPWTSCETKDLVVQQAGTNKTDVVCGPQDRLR
Description: The affinity of W3525 to human CD40 was determined using Biacore 8K. The activator was prepared by mixing 400 mM EDC and 100 mM NHS immediately prior to injection. The CMS sensor chip was activated for 420 s with the activator at a flow rate of 10 μL/min. Goat anti-human Fc IgG (30 μg/mL in 10 mM NaAc, pH 4.5) was then injected to the channels for 420 s at a flow rate of 10 μL/min The chip was deactivated by 1 M ethanolamine-HCl at a flow rate of 10 μL/min for 420 s. After immobilization, the antibody W3525 was diluted to 66.7 nM in running buffer (1×HBS-EP+) and was captured onto the channel Fc4 at a flow rate of 10 μL/min for 30 s. Seven concentrations (0, 1.5625, 3.125, 6.25, 12.5, 25 and 50 nM) of analyte W352-hPro1.ECD.His were injected orderly to the channels at a flow rate of 30 μL/min for an association phase of 90 s, followed by 300 s dissociation. Glycine solution (10 mM, pH 1.5) as regeneration buffer was injected following dissociation phase to regenerate the chip.
Molecular weight of 29 kDa was used to calculate the molar concentration of W352-hPro1.ECD.His.

[14] = target: T7, human CD40, full-length, on cells; test: cell-based or functional assay; remark: listed apart in the source
[15] = target: T7, human CD40, full-length, on cells; test: cell-based or functional assay; remark: listed apart in the source
[16] = target: T7, human CD40, full-length, on cells; test: FACS competition on W352-CHOK1.hPro1.A7 cells; competitor W352-hpro1L1.ECD.mFc at 5 ug/mL
Description: W352-CHOK1.hPro1.A7 cells were plated in a 96-well plate at a density of 1×10⁵ cells/well. A constant concentration of W352-hPro1L1.EECD.mFc (5 μg/mL) diluted in 1×PBS/1% BSA was added to the cells, followed by serially diluted antibodies (3-fold serially diluted from 60 nM to 0.0274 nM in 1×PBS/1% BSA), and mixed well. The plate was incubated at 4° C. for 1 hour.

[17] = target: T7, human CD40, full-length, on cells; test: FACS on W352-CHOK1.hPro1.A7 cells (CHO-K1 with full-length human CD40); W352-CHOK1.hPro1.A7 cells
Description: as §2, §3

B1: W3525-1.9.16-P5-uIgG2K (antibody, V domains shown)
VH: QVQLVQSGAEVKKPGSSVKVSCKASGDTVSSYGISWVRQAPGQGLEWMGGSIPFFGTPNYAQKFQGRVTFTADESTSTAYMELSSLRSEDTAVYYCARARRGYSYGHYHYYAMDVWGQGTTVTVAS
VL: DTVMTQSPLSLPVTPGEPASISCRSGQSLLHNNAYNYLDWYLQKPGQSPQLLIYLGSNRASGVPDRFSGSGSGTDFTLKISRVEAEDVGVYYCMQALQTPLSFGGGTKVEIKR
notes: Fully human IgG2 kappa with wild-type human IgG2 constant region; also called W3525 antibody; final lead antibody
B1: no binding (tested: 66.7 nM) [1]; no binding (tested: 66.7 nM) [2]; no binding (tested: 66.7 nM) [3]. For the same binder, the binding result [4] was “no binding (tested: 66.7 nM)”, the Kd [5] was 8470 pM and the koff [5] was 0.00377 s⁻¹. It also gave a kon [5] of 444000 M⁻¹ s⁻¹, an EC50 [6] of 2400 pM and an EC50 [7] of 160 pM. B1: no binding [8]; no binding [9]; no binding [10]. For the same binder, the EC50 [11] was 360 pM, the “EC50, CD54 expression, DC activation assay” value [12] was 350 pM and the “EC50, CD80 expression, DC activation assay” value [12] was 370 pM. The “EC50, CD83 expression, DC activation assay” value [12] was 160 pM, the “EC50, CD86 expression, DC activation assay” value [12] was 560 pM and the “EC50, IL-12p40 release, DC activation assay” value [12] was 470 pM. It also gave a Kd [13] of 7120 pM, a koff [13] of 0.00405 s⁻¹ and a kon [13] of 569000 M⁻¹ s⁻¹. The “EC50, B cell proliferation” value [14] was 160 pM, the “EC50, NFκB reporter assay, W352-Ramos.NFκBRE.luc” value [15] was 1400 pM and the “EC50, NFκB reporter assay, W352-U937.hPro1.NFκBRE.luc” value [15] was 1300 pM. It also gave an IC50 [16] of 1400 pM and an EC50 [17] of 1100 pM.
